Target: MUC2C-N (human MUC2 4256-4803, C4786A; PTS3, VWCN, D4 and VWC1) (human)
Test: cross-linking

## MUC2C-N (human MUC2 4256-4803, C4786A; PTS3, VWCN, D4 and VWC1) (domain or fragment)
  stoichiometry N: 2
